Results reported in patent publication US20180291110A1 (Hoffmann-La Roche, published 2018).
Positions count from the first letter of the chain named. Where two headings read alike, the source gives them in different places. Blank lines part the entries; values can stand above or below the binder they belong to.

Experiments:
[1] = target: T1, Her2 ECD (amino acids 1 to 629 of matured HER2 with C-terminal avi-tag and His-tag) (human, UniProt P04626 23-652); test: SPR, Ab captured, Her2 analyte
T1 construct: also called purified Her2

[2] = target: T1, Her2 ECD (amino acids 1 to 629 of …); test: SPR, Ab captured, Her2 analyte; remark: listed apart in the source
[3] = target: T1, Her2 ECD (amino acids 1 to 629 of …); test: SPR, Fab from bacterial supernatant captured, Her2 analyte
[4] = target: T1, Her2 ECD (amino acids 1 to 629 of …); test: SPR, Ab captured, Her2 analyte; remark: listed apart in the source
[5] = target: T2, human transferrin receptor (recombinant, for surface plasmon resonance) (human, UniProt P02786 89-760); test: SPR
T2 construct: also called huTfR; human transferrin receptor-biotinylated
T2 sequence (P02786 89-760 limits assumed): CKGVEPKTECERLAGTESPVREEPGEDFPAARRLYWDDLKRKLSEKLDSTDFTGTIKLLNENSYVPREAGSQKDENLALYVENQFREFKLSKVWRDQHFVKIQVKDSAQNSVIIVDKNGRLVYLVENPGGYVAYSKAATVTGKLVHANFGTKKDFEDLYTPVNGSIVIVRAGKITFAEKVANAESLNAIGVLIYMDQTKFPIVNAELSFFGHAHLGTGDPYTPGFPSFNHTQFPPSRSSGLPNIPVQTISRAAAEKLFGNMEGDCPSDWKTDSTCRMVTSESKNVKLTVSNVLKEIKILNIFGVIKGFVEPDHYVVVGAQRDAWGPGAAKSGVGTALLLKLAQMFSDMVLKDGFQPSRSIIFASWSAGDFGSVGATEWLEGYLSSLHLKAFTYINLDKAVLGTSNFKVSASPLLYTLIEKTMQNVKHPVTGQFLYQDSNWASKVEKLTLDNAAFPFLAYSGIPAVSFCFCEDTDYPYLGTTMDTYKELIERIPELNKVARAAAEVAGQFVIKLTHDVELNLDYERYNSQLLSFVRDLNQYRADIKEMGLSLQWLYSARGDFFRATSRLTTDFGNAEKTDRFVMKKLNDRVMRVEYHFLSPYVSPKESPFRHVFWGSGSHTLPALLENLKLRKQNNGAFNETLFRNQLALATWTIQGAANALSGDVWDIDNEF

Kd [1]: 26.7 nM
koff [1]: 0.00173 s⁻¹
kon [1]: 64700 M⁻¹ s⁻¹
Kd [2]: 4.96 nM
koff [2]: 0.00209 s⁻¹
kon [2]: 422000 M⁻¹ s⁻¹
B1: Pertuzumab HC x Pertuzumab (Tras.L3) LC (antibody, V domains shown)
VH: EVQLVESGGGLVQPGGSLRLSCAASGFTFTDYTMDWVRQAPGKGLEWVADVNPNSGGSIYNQRFKGRFTLSVDRSKNTLYLQMNSLRAEDTAVYYCARNLGPSFYFDYWGQGTLVTVSS
VL: DIQMTQSPSSLSASVGDRVTITCKASQDVSIGVAWYQQKPGKAPKLLIYSASYRYTGVPSRFSGSGSGTDFTLTISSLQPEDFATYYCQQHYTTPPTFGQGTKVEIK
notes: human IgG

Kd [3]: 1 nM
B3: Pertuzumab aff.mat. clone A1 with common light chain (Fab, V domains shown)
VH: B1 VH with Y60V, S103W
VL: B1 VL with I31T, G32A, Y53F, G66R
notes: bacterial Fab

Kd [4]: 0.202 nM
koff [4]: 5.42e-05 s⁻¹
kon [4]: 269000 M⁻¹ s⁻¹
B4: Trastuzumab HC x Pertuzumab (Tras.L3)(QM) LC (antibody, V domains shown)
VH: not shown
VL: B1 VL with I31T, G32A, Y53F, G66R

koff [5]: 0.000486 s⁻¹
B5: 4/94 SEQ ID NO 199 / SEQ ID NO 201 (antibody, V domains shown)
VH: QVQLQESGPGLVKPSETLSLTCTVSGFNIKDTYIHWVIQRPGKGLEWIGRIDPANGDTKSDPSLQSRVTISADTSKNQASLKLSSVTAADTAVYYCVRDYLYPYYFDFWGQGTTVTVSS
VL: KIQMTQSPSSLSASVGDRVTITCRASESVDTYVSWYQQKPGKAPKLLIYGASNRYTGVPSRFSGSGSGTDFTLTISSLQPEDFADYYCGQTYNYPLTFGQGTKLEI

koff [5]: 0.000274 s⁻¹
B7: 4/94 SEQ ID NO 200 / SEQ ID NO 201 (antibody, V domains shown)
VH: EVQLVESGGGLVQPGGSLRLSCAASGFNIKDTYIHWVIQAPGKGLEWVGRIDPANGDTKSDPSVQVRATISADTSKNTAYLQMNSLRAEDTAVYYCVRDYLYPYYFDFWGQGTTVTVSS
VL: B5 VL

koff [5]: 0.00055 s⁻¹
B8: 4/94 SEQ ID NO 199 / SEQ ID NO 208 (antibody, V domains shown)
VH: B5 VH
VL: EIVLTQSPGTLSLSPGERATLSCRASESVDTYVSWYQQKPGQAPRLLIYGASNRYTGVPDRFSGSGSGTDFTLTISRLEPEDFADYYCGQTYNYPLTFGQGTKLEI

koff [5]: 0.000552 s⁻¹
B9: 4/94 SEQ ID NO 199 / SEQ ID NO 209 (antibody, V domains shown)
VH: B5 VH
VL: B8 VL with E1K, V58I

koff [5]: 0.000232 s⁻¹
B11: 4/94 SEQ ID NO 200 / murine VL (antibody, V domains shown)
VH: B7 VH
VL: KIVMTQSPKSMSMSVGERVTLNCRASESVDTYVSWYQQKPEQSPELLIYGASNRYTGVPDRFTGSGSATDFTLTISSVQAEDLADYYCGQTYNYPLTFGAGTKLELKR

koff [5]: 0.000381 s⁻¹
B13: 4/94 SEQ ID NO 199 / murine VL (antibody, V domains shown)
VH: B5 VH
VL: B11 VL

koff [5]: 0.000544 s⁻¹
B16: 4/94 SEQ ID NO 198 / murine VL (antibody, V domains shown)
VH: QVQLVQSGAEVKKPGSSVKVSCKASGFNIKDTYIHWVIQRPGQGLEWMGRIDPANGDTKSDPKFQGRVTITADESTSTAYMELSSLRSEDTAVYYCVRDYLYPYYFDFWGQGTTVTVSS
VL: B11 VL

koff [5]: 0.000717 s⁻¹
B21: 4/94 SEQ ID NO 198 / SEQ ID NO 207 (antibody, V domains shown)
VH: B16 VH
VL: B8 VL with E1K

koff [5]: 0.000717 s⁻¹
B23: 4/94 SEQ ID NO 198 / SEQ ID NO 208 (antibody, V domains shown)
VH: B16 VH
VL: B8 VL

koff [5]: 0.000728 s⁻¹
B25: 4/94 SEQ ID NO 198 / SEQ ID NO 209 (antibody, V domains shown)
VH: B16 VH
VL: B8 VL with E1K, V58I

koff [5]: 0.000306 s⁻¹
B35: 4/94 SEQ ID NO 200 / SEQ ID NO 208 (antibody, V domains shown)
VH: B7 VH
VL: B8 VL

koff [5]: 0.000326 s⁻¹
B36: 4/94 SEQ ID NO 200 / SEQ ID NO 209 (antibody, V domains shown)
VH: B7 VH
VL: B8 VL with E1K, V58I

The next lines start with the binder.

B2: Trastuzumab HC x Pertuzumab (Tras.L3) LC (antibody, V domains shown)
VH: not shown
VL: B1 VL
notes: human IgG
Kd [1]: 1090 nM
koff [1]: 0.05 s⁻¹
kon [1]: 41900 M⁻¹ s⁻¹
Kd [2]: 72.5 nM
koff [2]: 0.0236 s⁻¹
kon [2]: 325000 M⁻¹ s⁻¹

B6: 4/94 SEQ ID NO 199 / SEQ ID NO 207 (antibody, V domains shown)
VH: B5 VH
VL: B8 VL with E1K
koff [5]: 0.000527 s⁻¹

B10: 4/94 SEQ ID NO 197 / murine VL (antibody, V domains shown)
VH: B16 VH with R40A
VL: B11 VL
koff [5]: 0.000542 s⁻¹

B12: 4/94 SEQ ID NO 196 / SEQ ID NO 201 (antibody, V domains shown)
VH: B16 VH with S16A, R40A, E74T, A79V
VL: B5 VL
koff [5]: 0.000386 s⁻¹

B14: 4/94 SEQ ID NO 196 / SEQ ID NO 207 (antibody, V domains shown)
VH: B16 VH with S16A, R40A, E74T, A79V
VL: B8 VL with E1K
koff [5]: 0.00043 s⁻¹

B15: 4/94 SEQ ID NO 196 / SEQ ID NO 208 (antibody, V domains shown)
VH: B16 VH with S16A, R40A, E74T, A79V
VL: B8 VL
koff [5]: 0.000434 s⁻¹

B17: 4/94 SEQ ID NO 194 / SEQ ID NO 209 (antibody, V domains shown)
VH: B16 VH with S16A, R40A, G66V, E74T, A79V
VL: B8 VL with E1K, V58I
koff [5]: 0.000448 s⁻¹

B18: 4/94 SEQ ID NO 197 / SEQ ID NO 201 (antibody, V domains shown)
VH: B16 VH with R40A
VL: B5 VL
koff [5]: 0.000657 s⁻¹

B19: 4/94 SEQ ID NO 197 / SEQ ID NO 209 (antibody, V domains shown)
VH: B16 VH with R40A
VL: B8 VL with E1K, V58I
koff [5]: 0.000705 s⁻¹

B20: 4/94 SEQ ID NO 194 / SEQ ID NO 208 (antibody, V domains shown)
VH: B16 VH with S16A, R40A, G66V, E74T, A79V
VL: B8 VL
koff [5]: 0.000476 s⁻¹

B22: 4/94 SEQ ID NO 196 / SEQ ID NO 209 (antibody, V domains shown)
VH: B16 VH with S16A, R40A, E74T, A79V
VL: B8 VL with E1K, V58I
koff [5]: 0.000452 s⁻¹

B24: 4/94 SEQ ID NO 195 / SEQ ID NO 207 (antibody, V domains shown)
VH: B16 VH with S16A, R40A, D61A, G66V, E74T, A79V
VL: B8 VL with E1K
koff [5]: 0.000426 s⁻¹

B26: 4/94 SEQ ID NO 198 / SEQ ID NO 201 (antibody, V domains shown)
VH: B16 VH
VL: B5 VL
koff [5]: 0.000684 s⁻¹

B27: 4/94 SEQ ID NO 195 / SEQ ID NO 208 (antibody, V domains shown)
VH: B16 VH with S16A, R40A, D61A, G66V, E74T, A79V
VL: B8 VL
koff [5]: 0.000415 s⁻¹

B28: 4/94 SEQ ID NO 194 / SEQ ID NO 201 (antibody, V domains shown)
VH: B16 VH with S16A, R40A, G66V, E74T, A79V
VL: B5 VL
koff [5]: 0.00041 s⁻¹

B29: 4/94 SEQ ID NO 195 / SEQ ID NO 201 (antibody, V domains shown)
VH: B16 VH with S16A, R40A, D61A, G66V, E74T, A79V
VL: B5 VL
koff [5]: 0.000399 s⁻¹

B30: 4/94 SEQ ID NO 195 / SEQ ID NO 209 (antibody, V domains shown)
VH: B16 VH with S16A, R40A, D61A, G66V, E74T, A79V
VL: B8 VL with E1K, V58I
koff [5]: 0.000438 s⁻¹

B31: 4/94 SEQ ID NO 197 / SEQ ID NO 208 (antibody, V domains shown)
VH: B16 VH with R40A
VL: B8 VL
koff [5]: 0.000683 s⁻¹

B32: 4/94 SEQ ID NO 197 / SEQ ID NO 207 (antibody, V domains shown)
VH: B16 VH with R40A
VL: B8 VL with E1K
koff [5]: 0.000703 s⁻¹

B33: 4/94 SEQ ID NO 194 / SEQ ID NO 207 (antibody, V domains shown)
VH: B16 VH with S16A, R40A, G66V, E74T, A79V
VL: B8 VL with E1K
koff [5]: 0.000454 s⁻¹

B34: 4/94 SEQ ID NO 200 / SEQ ID NO 207 (antibody, V domains shown)
VH: B7 VH
VL: B8 VL with E1K
koff [5]: 0.000299 s⁻¹
